In US20200093883:

Test system: JNK inhibitor according to SEQ ID NO: 172 ("XG-104")

c-Jun N-terminal kinase (JNK) in primary mouse cortical neurons
c-Jun phosphorylation (immunoblot), WT neurons stressed with 2 µM Aβ42, 10 µM XG-104: XG-104 showed -29% efficacy in order to decrease c-Jun phosphorylation (FIG. 55 C)
